Tests used:
primary NHP hepatocytes = assay: Hepatocyte toxicity in the P. cynomolgi anti-hypnozoite assay; assay type: cell-based, cynomolgus monkey; conditions: treatment days 4 to 7 after infection, readout day 8
Description: (§1) Cryopreserved primary cynomolgus monkey hepatocytes (lot STX) and hepatocyte culture medium (HCM) (InVitroGro CP medium) were obtained from BioIVT Inc. (Baltimore, MD, USA) and thawed following the manufacturer’s recommendations. Hepatocytes were seeded in 384-well collagen-coated plates and used for experiments within 2 days after seeding as previously described ([52]). Infectious sporozoites were obtained from Anopheles dirus mosquitoes infected with P. cynomolgi B strain and were used to infect the plated primary NHP hepatocytes 2 days after seeding ([52], [102]). HCM was changed the day after infection and every other day thereafter until drug treatment. […]
(§2) Imaging and image analysis of assay plates were completed using an Operetta CLS high-content imaging system and Harmony 4.9 software (PerkinElmer, Waltham, MA, USA). […] Using similar methodology described previously, parasites were counted with the TRITC channel and were identified by area, mean intensity, maximum intensity, and cell roundness parasites ([50], [99]–[102]). […] Percent inhibition (PI) and toxicity values were calculated relative to in-plate negative controls for parasites and hepatocytes, respectively, using GraphPad Prism software (GraphPad Software Inc., USA, Windows version 9.5.1) using the average of experimental and biological replicates. […]

G6PD-deficient huRBCs = assay: Hemotoxicity in humanized G6PD deficiency mouse model; assay type: in vivo, human RBCs engrafted in NOD/SCID mice
Description: Following procedures as previously published ([46]), hemotoxicity studies using huRBC engraftments were conducted in mice.
Female (8 to 9 weeks) NOD.CB17-Prkdcscid/J [nonobese diabetic severe combined immunodeficient (NOD/SCID)] mice were purchased from The Jackson Laboratory (Bar Harbor, ME). The animals were housed in a cage maintained in a specific pathogen–free animal facility and were acclimated for 1 week in the facility before initiation of experimental procedures. Sterile food and water were provided ad libitum throughout the study as previously described ([64]). All animal studies were performed under IACUC-approved protocols and adhere to the principles stated in the Guide for the Care and Use of Laboratory Animals ([100]).
Polymer solutions for SC administration were prepared in DPBS at the final dosing concentrations. All drug concentrations were calculated per the free base molecular weights of TQ. The TQ parent compound was administered intragastrically via an intragastric feeder tube. Polymers and vehicle were administered SC in the right flank. TQ, pSVCTQ, and vehicle were given as a single dose on day 0. In this model, the TQ dose studied was 10 mg/kg; pSVCTQ was tested at doses of 2.5, 5.0, or 10 mg/kg TQ equivalent.
The percentage of huRBCs at the end of this period was analyzed by flow cytometry to evaluate glycophorin A (huRBCs) and Ter119 (mouse RBCs) circulating in peripheral blood. […] The G6PD-deficient huRBC NOD/SCID mice were dosed with pSVCTQ or parent drug prepared as described above, with three to four mice per group. On days 4 and 7 following dosing, huRBC levels were assessed again by flow cytometry (glycophorin^+Ter119^−), along with the percentage of murine reticulocytes (CD71^+Ter119) as an additional marker of hemolytic toxicity. Mice were euthanized on day 7 following initiation of treatment.
Microsoft Excel and GraphPad Prism were used throughout the PK analysis to process the data, calculate pharmacokinetic parameters, and yield statistical information. A linear regression model was produced using the least squares fitting method with 1/x^2 scaling for the assay calibrators. […] For the G6PD deficiency model, data analysis was performed using GraphPad Prism (GraphPad Software). […] An F test comparing the two dose-response curves was also run. For all other work, a combination of Microsoft Excel and GraphPad Prism was used.

P. cynomolgi hypnozoites = assay: P. cynomolgi anti-hypnozoite assay in primary NHP hepatocytes (radical cure mode); assay type: cell-based; conditions: treatment days 4 to 7 after infection, readout day 8
Description: as §1, §2

p(GalNAc-MA-co-SVCTQ-MA) [pSVCTQ]
IC50 (primary NHP hepatocytes): > 161 µM
Dose resulting in 50% hemolysis (TD50) (G6PD-deficient huRBCs; curve fit of Fig. 4B, single dose, pSVCTQ SC, TQ oral, day 7): 11.2 mg/kg
Reduction of hemotoxicity compared to oral TQ (G6PD-deficient huRBCs; from median effective doses): greater than twofold
Median effective dose (dose that results in 50% huRBC loss by day 7 relative to vehicle control) (G6PD-deficient huRBCs; single dose day 0, pSVCTQ SC, TQ oral, A− G6PD-deficient donor): 11.4 mg/kg
IC50 (P. cynomolgi hypnozoites): 25.6 µM

— publication PMC11029812, “Liver-targeted polymeric prodrugs delivered subcutaneously improve tafenoquine therapeutic window for malaria radical cure” (Science Advances, 2024)
